Article PMC10182996

Target: CPn0677-His (recombinant full-length CPn0677 with C-terminal 10His tag) (Chlamydia pneumoniae GiD)
Assay: SEC; Superdex 200 Increase 10/300 GL, 4 °C, 0.5 ml/min, 5.2 mg CPn0677 (5 mg/ml) in PBS pH 6.0, against standard proteins

Q: For “CPn0677-His (recombinant full-length CPn0677 with C-terminal 10His tag) (natural protein)”, which stoichiometry N is on record?
A: 2
